Laboratory results published in patent publication US20230272088A1 (SYNTHEKINE, published 2023).

T1: extracellular domain of mIFNGR1 (mouse, UniProt P15261 26-254, conjugated to Alexa647 (site not stated))
T1 construct: Origin and tags of the murine antigen are not described; UniProt P15261 residues 26-254; also called mIFNGR1-ECD; murine IFNGR1 ECD
T1 sequence: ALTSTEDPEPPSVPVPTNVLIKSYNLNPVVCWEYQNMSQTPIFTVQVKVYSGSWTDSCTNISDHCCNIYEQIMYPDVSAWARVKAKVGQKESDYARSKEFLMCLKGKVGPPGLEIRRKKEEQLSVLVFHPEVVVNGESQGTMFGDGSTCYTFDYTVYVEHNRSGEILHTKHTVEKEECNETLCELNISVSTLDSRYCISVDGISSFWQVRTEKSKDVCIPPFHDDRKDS

T2: extracellular domain of hIFNGR1 (human, UniProt P15260 18-245, conjugated to Alexa647 (site not stated))
T2 construct: UniProt P15260 residues 18-245; also called hIFNGR1-ECD; human IFNGR1 ECD
T2 sequence: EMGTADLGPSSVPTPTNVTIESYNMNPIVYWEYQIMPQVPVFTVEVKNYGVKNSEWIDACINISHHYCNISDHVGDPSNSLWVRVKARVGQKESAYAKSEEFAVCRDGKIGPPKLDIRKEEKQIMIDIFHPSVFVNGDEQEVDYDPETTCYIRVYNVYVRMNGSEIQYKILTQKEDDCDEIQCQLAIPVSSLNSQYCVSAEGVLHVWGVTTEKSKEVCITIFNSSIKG

T3: extracellular domain of hIFNGR2 (human, UniProt P38484 28-247, conjugated to Alexa647 (site not stated))
T3 construct: also called hIFNGR2-ECD; human IFNGR2 ECD
T3 sequence: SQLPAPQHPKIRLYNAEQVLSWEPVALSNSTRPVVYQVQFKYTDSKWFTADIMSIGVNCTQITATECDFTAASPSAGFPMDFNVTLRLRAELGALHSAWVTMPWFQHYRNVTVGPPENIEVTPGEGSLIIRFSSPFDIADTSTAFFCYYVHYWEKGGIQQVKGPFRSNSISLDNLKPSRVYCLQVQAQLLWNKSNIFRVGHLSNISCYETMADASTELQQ


What was measured:
[1] = target: T1, extracellular domain of mIFNGR1; test: flow cytometry, yeast-displayed VHH, 100 nM Alexa647-conjugated antigen
Method: (§1) Binding of individual VHH to human and murine antigen was tested by flow cytometry. Briefly, 2E5 yeast cells expressing a single sdAb clone were added to each well of a 96 well plate. The first plate was incubated with 100 nM of human antigen conjugated to Alexa647 whereas the second plate was incubated with 100 nM of murine antigen conjugated to Alexa647. Yeast cells were washed 3 times with PBS containing 1% bovine serum albumin. Yeast cells were analyzed using flow cytometry and clones showing a mean fluorescence intensity of greater than 1000 were considered as binding molecules. Specificity of sdAbs was confirmed by incubating yeast cells with a irrelevant protein conjugated to Alexa647. Positive clones were sequenced, and sequences analyzed to identify unique clonotypes.

[2] = target: T2, extracellular domain of hIFNGR1; test: as above
Method: as §1

[3] = target: T3, extracellular domain of hIFNGR2; test: flow cytometry
[4] = target: T2, extracellular domain of hIFNGR1; test: flow cytometry
[5] = target: T1, extracellular domain of mIFNGR1; test: flow cytometry

Row | Binder | binding result [1] | binding result [2] | binding result [3] | binding result [4] | binding result [5]
1 | DR916 (VHH, also called anti-IFNGR1 sdAb VHH DR916) VHH: EVQLVESGGGLVQPGGSLRLSCTASGRPRTTYAMGWFRQAPGKEREIVAAISKAGGSTYVADSAKGRFAISKDNAKNTVYLQMNSLKPEDTAVYYCAARAGFAAQIFEYDYWGQGTLVTVSS | binds | binds | – | – | –
2 | DR910 (VHH, also called anti-IFNGR1 sdAb VHH DR910) VHH: EVQLVESGGGLVQTGGSLRLSCAASGRTFSSYAMAWFRQAPGKEREFVAAISILGGSADYEDSVQGRFTISRDNAKNTMYLQMNSLKPEDTAVYYCAARRPAPSDSYWSSTSYAYWGQGTLVTVSS | binds | binds | – | – | –
3 | DR917 (VHH, also called anti-IFNGR1 sdAb VHH DR917) VHH: EVQLVESGGGLVQAGGSLRLSCAASGRTFSGYNMGWFRQAPGKEREFVAAIAWAGSRTYYTDSVKGRFTISRDNAKNTMYLQMNTLRPEDTAVYYCAAHDETYYRLDRVDLYTHWGQGTLVTVSS | binds | binds | – | – | –
4 | DR909 (VHH, also called anti-IFNGR1 sdAb VHH DR909) VHH: EVQLVESGGGLVQAGGSLRLSCAASGRTFGTSFGALSMGWFRQAPGKEREFVAAITRNTGRTFYADSVKDRFTISRDNAKNTASLQMNSLEPEDTAVYICAATNSYDDLRRSYAYNYWGQGTQVTVSS | binds | binds | – | – | –
5 | DR924 (VHH, also called anti-IFNGR1 sdAb VHH DR924) VHH: QVQLVESGGGLVQAGGSLRLSCTASGRTFSRYAMGWFRQAPGKEREFVATISRSGGTTSYANSVKGRFTISRDNAKNTVYLQMNSLKTEDTAVYNCAARDGPAMGVFGSDYDYWGQGTLVTVSS | binds | binds | – | – | –
6 | DR918 (VHH, also called anti-IFNGR1 sdAb VHH DR918) VHH: EVQLVESGGGLVQAGGSLRLSCATSGLTDSTYGMAWFRQAPGKEREFVAAISRAGGSADHADSVKGRFTVSRDNAKKMVYLQMNSLKPEDTAVYYCASGRSYSSPYDYFNALAYSYWGQGTQVTVSS | binds | binds | – | – | –
7 | DR923 (VHH, also called anti-IFNGR1 sdAb VHH DR923) VHH: QVQLVESGGGLVQAGGSLRLSCAASRRTFMTYAMGWFRQAPGKEREFVAAISWSSGSTYYADSVKGRFTISRDNAKNTMYLQMNSLKPEDTAVYYCTASSIATMYGPNDYAGQGTLVTVSS | binds | binds | – | – | –
8 | DR920 (VHH, also called anti-IFNGR1 sdAb VHH DR920) VHH: EVQLVESGGGLVQAGGSLRLSCAASGRSFANYAMGWFRQAPGKERETVAAISRGGGSTWYADSVKGRFTISKDNAKNTVYLQMNSLKPEDTAIYYCAARSYSGSYTYSFGEYDYWGQGTQVTVSS | binds | binds | – | – | –
9 | DR956 (VHH, also called anti-IFNGR2 sdAb VHH DR956) VHH: EVQLVESGGGLVQAGGSLRLSCAASGRTFSSLAMAWFRQAPGKEREFVAATTILGGSADYGDPVKGRFTISRDNAKNTVYLQMNSLKPEDTAVYYCTGRRPAPSDNYWSPASYAYWGQGTQVTVSS | – | – | binds | – | –
10 | DR911 (VHH, also called anti-IFNGR1 sdAb VHH DR911) VHH: EVQLVESGGALVQAGGSLRLSCTVSGRSFSTYAMAWFRRAPGKERELVSAITVGGGSTYYVDSVKGRFTISRENAKNTLYLQMNNLKPEDTAIYICAARDYRRRSYAPEAEQYDYWGQGTQVTVSS | binds | binds | – | – | –
11 | DR913 (VHH, also called anti-IFNGR1 sdAb VHH DR913) VHH: EVQLVESGGGLVQAGGFLRLSCAASGRTFSSYAMGWFRQIPGKERELVAAISSWSGGSTYYADSVKGRFTISRDNAKNTVYLQMLSLKPEDTAVYYCTTGDYYSDYFKYDNENWGKGTQVTVSS | binds | binds | – | – | –
12 | DR958 (VHH, also called anti-IFNGR2 sdAb VHH DR958) VHH: QVQLVESGGGLVQAGDSLTLSCTASGRTFSGYNMGWFRQAPGKERDFVAAINWIGGATYYADSVKGRFTISRDNAKNTVYLQMNSLKPEDTAVYYCHRYSEKFYSGKDYYTRDYDYWGQGTQVTVSS | – | – | binds | – | –
13 | DR912 (VHH, also called anti-IFNGR1 sdAb VHH DR912) VHH: EVQLVESGGGLVQAGGSLRLSCAPSGRTFSSYAMAWFRQPPGKEREFVAAITVSGASTYYADSVKGRFTISRDNAKNSMYLQMNSLKPEDTAVYYCAAGGPGTIFPDYDYWGQGTQVTVSS | binds | binds | – | – | –
14 | DR925 (VHH, also called anti-IFNGR1 sdAb VHH DR925) VHH: EVQLVESGGGLVQAGGSLVLSCAASGRTFSRYAMGWFRQAPGKEREFVAAISIGGGSADYADTVKGRFTISRNNAKNTMYLQMNSLKPEDTAVYYCAARTPRPSSSYFTPQDYEYWGQGTLVTVSS | binds | binds | – | – | –
15 | DR906 (VHH, also called anti-IFNGR1 sdAb VHH DR906) VHH: EVQLVESGGGLVQAGGSLRLSCAASGSTFSTYVMGWFRQAPGKEREFVAAISRSGGTTTYADSVKGRFDISRDNGKNTLFLQMNSLIPEDTAAYYCAARAGPAIGRTANDYHSWGQGTLVTVSS | binds | binds | – | – | –
16 | DR903 (VHH, also called anti-IFNGR1 sdAb VHH DR903) VHH: EVQLVESGGGLVQAGGSLRLSCAASGRIASDYTRGWFRQAPGKEREFVAAIIRSVGDSYYADSVKGRFTISIDNAENTVYLQMNSLKPEDTAVYYCAVGGHLYYGSRWRYPASYDYWGQGTQVTVSS | binds | – | – | binds | –
17 | DR922 (VHH, also called anti-IFNGR1 sdAb VHH DR922) VHH: QVQLVESGGGLVRAGGSLRLSCAASGSITSINTMGWFRQAPGKQRELVAAITSGGSTNYADSVKGRFTISRDNARNTVYLQMYSLKPEDTAVYYCEADSMYFRGQGTQVTVSS | binds | binds | – | – | –
18 | DR915 (VHH, also called anti-IFNGR1 sdAb VHH DR915) VHH: EVQLVESGGGLVQAGGSLRLSCAAARRTLHNFAMAWFRQAPGKEREFVAAISKGGGSADYADSVKGRFTISRDNAKNTVYLQMNSLKPEDTAVYYCAANDLASYSDSSYTSTSRYDYWGQGTQVTVSS | binds | binds | – | – | –
19 | DR907 (VHH, also called anti-IFNGR1 sdAb VHH DR907) VHH: EVQLVESGGGLVQAGGSLRLSCAASGRTFSNYAMGWFRQAPGNEREFVAAINWNIGSTYYADSVKGRFTISRDNAKNTVYLQMNSLKPEDTAVYYCGAVWPTGRLRVDSEYDYWGQGTQVTVSS | – | binds | – | – | binds
20 | DR905 (VHH, also called anti-IFNGR1 sdAb VHH DR905) VHH: EVQLVESGGGLVQAGGSLRLSCVASGRTFTGYAMGWFRQAPGKEREFVAVITWSGATTYYSASVKGRFTLSRDNAKNTVYLQMNSLKSEDTAVYYCAIRIRDGVSPENPNEYGYWGQGTQVTVSS | binds | binds | – | – | –
21 | DR914 (VHH, also called anti-IFNGR1 sdAb VHH DR914) VHH: EVQLVESGGGLVQAGGSLTLSCVASGRAFSNSAMAWFRQTPGKEREFVSAISRGGGSTDYADSVKGRFTISKDNAKNTVYLQMNSLKPEDTAVYYCAMRYYSGRYYESLEYDYWGQGTQVTVSS | binds | binds | – | – | –
22 | DR953 (VHH, also called anti-IFNGR2 sdAb VHH DR953) VHH: QVQLVESGGGLVQAGDSLRLSCAASGPTFSTYAMAWFRQAPGKEREFVAAITQSGRTTYYEDSVKGRFTISKDNAKNTLYLQMNSLQPEDTAVYYCAARDLWSDSPDDWRIYSFWGQGTQVTVSS | – | – | binds | – | –
23 | DR926 (VHH, also called anti-IFNGR1 sdAb VHH DR926) VHH: EVQLVESGGGLVQAGGSLRLSCAASGRTFSRYAMNWFRQAPGKEREFVAAISWSSGNTYVADSVKGRFTISRDNAKNTMYLQMNNLAPEDTAVYYCAATTIATMSDENTYWGQGTQVTVSS | binds | binds | – | – | –
